Experiments:
[1] = biological target: PF3D7_0800200 (ATS domain, 2,466-2,858 aa)-His (Plasmodium falciparum) (UniProt Q8IAK2); experiment: BLI; Octet K2; ATS-His loaded onto Ni-NTA biosensors; GST-tagged analyte diluted from 1,000 to 62.5 nM in PBS with 0.02% Tween-20; association and dissociation 5 min each; non-linear global fit
[2] = biological target: T1, PF3D7_0800200 (acidic C-terminal segment (ATS) domain, 2,466-2,858 aa)-His (Plasmodium falciparum, UniProt Q8IAK2 2466-2858); experiment: BLI; Octet K2 (ForteBio); ATS-His loaded onto Ni-NTA biosensors; GST-tagged protein in solution diluted from 1,000 to 62.5 nM in PBS with 0.02% Tween-20; association and dissociation 5 min each; non-linear global fit; KD calculated as Kdis/Kon; details: both partners purified
T1 construct: the reverse primer has no stop codon), which would give a C-terminal His tag; also called ATS-His; PfEMP1 ATS; source: E. coli BL21 (DE3), purified
T1 sequence: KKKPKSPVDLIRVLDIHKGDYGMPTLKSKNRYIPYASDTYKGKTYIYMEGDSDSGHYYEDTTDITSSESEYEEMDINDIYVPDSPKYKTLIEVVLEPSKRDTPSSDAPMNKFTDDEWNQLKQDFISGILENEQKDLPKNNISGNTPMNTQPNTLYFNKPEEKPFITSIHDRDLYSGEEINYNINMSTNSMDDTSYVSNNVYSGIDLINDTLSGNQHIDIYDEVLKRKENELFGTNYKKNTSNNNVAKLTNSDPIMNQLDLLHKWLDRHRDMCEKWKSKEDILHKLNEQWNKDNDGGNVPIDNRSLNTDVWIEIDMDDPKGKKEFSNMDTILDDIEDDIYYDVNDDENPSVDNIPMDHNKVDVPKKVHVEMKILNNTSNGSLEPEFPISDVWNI

[3] = biological target: T2, PF3D7_0800200 (ATS domain, 2,466-2,858 aa)-His (Plasmodium falciparum, UniProt Q8IAK2 2466-2858); experiment: BLI; Octet K2; ATS-His loaded onto Ni-NTA biosensors; GST-tagged analyte diluted from 1,000 to 62.5 nM in PBS with 0.02% Tween-20; association and dissociation 5 min each; non-linear global fit; details: both partners purified
T2 construct: Cloned into pET-28a; also called ATS-His; PfEMP1 ATS; source: E. coli BL21 (DE3), purified
T2 sequence: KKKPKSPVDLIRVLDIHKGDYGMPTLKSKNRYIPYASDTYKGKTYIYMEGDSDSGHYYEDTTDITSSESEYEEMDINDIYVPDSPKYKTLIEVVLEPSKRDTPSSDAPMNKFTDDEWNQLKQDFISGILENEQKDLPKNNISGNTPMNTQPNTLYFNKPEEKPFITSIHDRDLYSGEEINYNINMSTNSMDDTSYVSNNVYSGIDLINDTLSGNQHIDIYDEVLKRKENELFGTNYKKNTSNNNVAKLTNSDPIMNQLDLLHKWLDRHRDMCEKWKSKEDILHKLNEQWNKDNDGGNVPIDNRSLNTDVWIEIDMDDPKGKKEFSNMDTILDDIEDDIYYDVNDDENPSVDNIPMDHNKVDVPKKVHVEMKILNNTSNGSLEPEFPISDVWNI

Sequence of GST (P08515 2-218): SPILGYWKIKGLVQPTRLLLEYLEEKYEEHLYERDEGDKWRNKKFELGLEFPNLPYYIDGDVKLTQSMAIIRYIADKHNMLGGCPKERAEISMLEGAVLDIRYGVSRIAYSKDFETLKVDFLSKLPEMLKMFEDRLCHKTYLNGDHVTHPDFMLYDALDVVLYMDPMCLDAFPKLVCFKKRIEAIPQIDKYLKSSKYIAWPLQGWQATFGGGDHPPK

Row | Molecule | Kd [1] | koff [2] | kon [2] | Kd [3]
1 | GST | < 0.001 nM |  |  | 
2 | PF3D7_1372300 (27-206 aa)-GST (domain or fragment, PF3D7_1372300, a PHIST/PHISTa-like protein of Plasmodium falciparum, residues 27-206 (without the 25-residue signal peptide), amplified from P. falciparum cDNA; the reverse primer carries a stop codon; also called PF3D7_1372300-GST; 1372300-GST; source: E. coli BL21 (DE3), purified) RNEIHKNSLGFGKNDNIYSRNLAQLKLSNYSLLKDSKFESVTEQLTREELYELFDLLVQVPPRTYLLNIWNHKNGICRQGTKDLLKNLRGIAPKLTYRHTGNTNQYGKSPPKITWQGCSYDCNMMVSTLETEQTNRFYNLLNKKAPIDEIKSFIRSCIDEFDKLHTDLYVKYEKIFSEQK |  | 0.000756 s⁻¹ | 6330 M⁻¹ s⁻¹ | 
3 | PF3D7_1372300-(27-129)-GST (domain or fragment, PF3D7_1372300, a PHIST/PHISTa-like protein of Plasmodium falciparum, residues 27-129; purified 'according to the methods described above'; also called PF3D7_1372300 (residues 27-129); source: E. coli BL21 (DE3), purified) RNEIHKNSLGFGKNDNIYSRNLAQLKLSNYSLLKDSKFESVTEQLTREELYELFDLLVQVPPRTYLLNIWNHKNGICRQGTKDLLKNLRGIAPKLTYRHTGNT |  | 0.000844 s⁻¹ | 6630 M⁻¹ s⁻¹ | 
4 | PF3D7_1372300-(130-206)-GST (domain or fragment, PF3D7_1372300, a PHIST/PHISTa-like protein of Plasmodium falciparum, residues 130-206; purified 'according to the methods described above'; also called PF3D7_1372300 (residues 130-206); source: E. coli BL21 (DE3), purified) NQYGKSPPKITWQGCSYDCNMMVSTLETEQTNRFYNLLNKKAPIDEIKSFIRSCIDEFDKLHTDLYVKYEKIFSEQK |  | 0.000158 s⁻¹ | 6960 M⁻¹ s⁻¹ | 
5 | PF3D7_1372300 (27-206 aa)-GST (domain or fragment, PF3D7_1372300, PHIST/PHISTa-like protein of Plasmodium falciparum, residues 27-206 (without the 25 amino acid signal peptide), amplified from P. falciparum cDNA; Cloned into pGEX-4T-1; also called PF3D7_1372300-GST; PHIST/PHISTa-like protein; source: E. coli BL21 (DE3), purified) RNEIHKNSLGFGKNDNIYSRNLAQLKLSNYSLLKDSKFESVTEQLTREELYELFDLLVQVPPRTYLLNIWNHKNGICRQGTKDLLKNLRGIAPKLTYRHTGNTNQYGKSPPKITWQGCSYDCNMMVSTLETEQTNRFYNLLNKKAPIDEIKSFIRSCIDEFDKLHTDLYVKYEKIFSEQK |  |  |  | 119 nM
6 | PF3D7_1372300-(27-129)-GST (domain or fragment, PF3D7_1372300, PHIST/PHISTa-like protein of Plasmodium falciparum, residues 27-129; source: E. coli BL21 (DE3), purified (according to the methods described for the other recombinant proteins)) RNEIHKNSLGFGKNDNIYSRNLAQLKLSNYSLLKDSKFESVTEQLTREELYELFDLLVQVPPRTYLLNIWNHKNGICRQGTKDLLKNLRGIAPKLTYRHTGNT |  |  |  | 127 nM
7 | PF3D7_1372300-(130-206)-GST (domain or fragment, PF3D7_1372300, PHIST/PHISTa-like protein of Plasmodium falciparum, residues 130-206; source: E. coli BL21 (DE3), purified (according to the methods described for the other recombinant proteins)) NQYGKSPPKITWQGCSYDCNMMVSTLETEQTNRFYNLLNKKAPIDEIKSFIRSCIDEFDKLHTDLYVKYEKIFSEQK |  |  |  | 22.6 nM

Source: PMC7691434, “Interaction Analysis of a Plasmodium falciparum PHISTa-like Protein and PfEMP1 Proteins” (Frontiers in Microbiology, 2020)
